Source: patent US6982321

Target: isolated VL-domain of the reshaped anti-lysozyme Fv-fragment (HuVLLYS)
Experiment: formaldehyde crosslinking of Fv, overloaded SDS gel

B1: isolated VL-domain of the reshaped anti-lysozyme Fv-fragment (HuVLLYS) (protein)
VL: DIQMTQSPSSLSASVGDRVTITCRASGNIHNYLAWYQQKPGKAPKLLIYYTTTLADGVPSRFSGSGSGTDFTFTISSLQPEDIATYYCQHFWSTPRTFGQGTKVEIK
With B1 as the binder, how does the fraction of crosslinked material read?
Its fraction of crosslinked material is < 5%.
